From ChEMBL document CHEMBL1122090, “Species- or isozyme-specific enzyme inhibitors. 7. Selective effects in inhibitions of rat adenylate kinase isozymes by adenosine 5'-phosphate derivatives” (J Med Chem, 1982)

Experiments:
[1] = substrate: CCNc1nc(N)c2ncn([C@@H]3O[C@H](COP(=O)(O)O)[C@@H](O)[C@H]3O)c2n1; assay: (§1) Concentration for half-maximal velocity to Adenylate kinase III
[2] = substrate: CCC[C@H](OP(=O)(O)O)[C@H]1OC(n2cnc3c(N)ncnc32)[C@H](O)[C@@H]1O; assay: as §1
[3] = substrate: Nc1nc(Cl)nc2c1ncn2[C@@H]1O[C@H](COP(=O)(O)O)[C@@H](O)[C@H]1O; assay: as §1
[4] = substrate: Nc1ncnc2c1ncn2[C@@H]1O[C@H](/C=C/P(=O)(O)O)[C@@H](O)[C@H]1O; assay: as §1
[5] = substrate: CNc1nc(N)c2ncn([C@@H]3O[C@H](COP(=O)(O)O)[C@@H](O)[C@H]3O)c2n1; assay: as §1
[6] = substrate: Nc1nc(N)c2ncn([C@@H]3O[C@H](COP(=O)(O)O)[C@@H](O)[C@H]3O)c2n1; assay: as §1
[7] = substrate: Nc1ncnc2c1ncn2[C@@H]1O[C@H](CCP(=O)(O)O)[C@@H](O)[C@H]1O; assay: as §1
[8] = substrate: Nc1ncnc2c1ncn2[C@@H]1O[C@H](COP(=O)(O)O)[C@@H](O)[C@H]1O; assay: as §1
[9] = substrate: C[C@H](OP(=O)(O)O)[C@H]1OC(n2cnc3c(N)ncnc32)[C@H](O)[C@@H]1O; assay: as §1
[10] = substrate: C[C@@H]1[C@H](O)[C@@H](COP(=O)(O)O)O[C@H]1n1cnc2c(N)ncnc21; assay: as §1
[11] = substrate: CCNc1nc(N)c2ncn([C@@H]3O[C@H](COP(=O)(O)O)[C@@H](O)[C@H]3O)c2n1; assay: (§2) Concentration of compound for half-maximal velocity to Adenylate kinase M isoenzyme
[12] = substrate: Nc1nc(Cl)nc2c1ncn2[C@@H]1O[C@H](COP(=O)(O)O)[C@@H](O)[C@H]1O; assay: as §2
[13] = substrate: Nc1ncnc2c1ncn2[C@@H]1O[C@H](/C=C/P(=O)(O)O)[C@@H](O)[C@H]1O; assay: as §2
[14] = substrate: CNc1nc(N)c2ncn([C@@H]3O[C@H](COP(=O)(O)O)[C@@H](O)[C@H]3O)c2n1; assay: as §2
[15] = substrate: Nc1nc(N)c2ncn([C@@H]3O[C@H](COP(=O)(O)O)[C@@H](O)[C@H]3O)c2n1; assay: as §2
[16] = substrate: Nc1ncnc2c1ncn2[C@@H]1O[C@H](CCP(=O)(O)O)[C@@H](O)[C@H]1O; assay: as §2
[17] = substrate: CN(C)c1nc(N)c2ncn(C3O[C@H](COP(=O)(O)O)[C@@H](O)[C@H]3O)c2n1; assay: as §2
[18] = substrate: Nc1ncnc2c1ncn2[C@@H]1O[C@H](COP(=O)(O)O)[C@@H](O)[C@H]1O; assay: as §2
[19] = substrate: C[C@H](OP(=O)(O)O)[C@H]1OC(n2cnc3c(N)ncnc32)[C@H](O)[C@@H]1O; assay: as §2
[20] = substrate: C[C@@H]1[C@H](O)[C@@H](COP(=O)(O)O)O[C@H]1n1cnc2c(N)ncnc21; assay: as §2

| Protein | Km [1] [µM] | Km [2] [µM] | Km [3] [µM] | Km [4] [µM] | Km [5] [µM] | Km [6] [µM] | Km [7] [µM] | Km [8] [µM] | Km [9] [µM] | Km [10] [µM] | Km [11] [µM] | Km [12] [µM] | Km [13] [µM] | Km [14] [µM] | Km [15] [µM] | Km [16] [µM] | Km [17] [µM] | Km [18] [µM] | Km [19] [µM] | Km [20] [µM] |
| --- | --- | --- | --- | --- | --- | --- | --- | --- | --- | --- | --- | --- | --- | --- | --- | --- | --- | --- | --- | --- |
| GTP:AMP phosphotransferase AK3, mitochondrial (Rattus norvegicus), P29411 (protein) MGASGRLLRAVIMGAPGSGKGTGSSRITKHFELKHLSSGDLLRQNMLQGTEIAVLAKSFIDQGKLIPDDDMTRLALHELKNLTQCSWLLDGFPRTLPQAEALDRVYQIDTVINLNVPFEVIKLRLTARWIHPASGRVYNIEFNPPKTVGIDDLTGEPLIQREDDKPETVIKRLKAYEAQTEPVLQYYQKKGVLETFSGTETNKIRPHVYSFLQMKVPETIQKASVTP | 5400 | 830 | 1600 | 1400 | 3700 | 1900 | 2200 | 80 | 1100 | 790 |  |  |  |  |  |  |  |  |  |  |
| Adenylate kinase isoenzyme 1 (Rattus norvegicus), P39069 (protein) MEDKLKKAKIIFVVGGPGSGKGTQCEKIVQKYGYTHLSTGDLLRAEVSSGSSRGKMLSSIMEKGELVPLETVLDMLRDAMLAKVDSSNGFLIDGYPREVKQGEEFERKIAQPTLLLYVDAGPETMTQRLLKRGETSGRVDDNEETIKKRLETYYKATEPVISFYDKRGIVRKVNAEGSVDTVFSQVCTYLDSLK |  |  |  |  |  |  |  |  |  |  | 4200 | 2700 | 2000 | 2900 | 3500 | 4200 | 7500 | 580 | 2000 | 5500 |
